Laboratory results published in article PMC9482650, “Quantitative fragmentomics allow affinity mapping of interactomes” (Nature Communications, 2022).

T1: SYNJ2BP, P57105
T1 sequence (P57105 8-110, limits assumed, looked up): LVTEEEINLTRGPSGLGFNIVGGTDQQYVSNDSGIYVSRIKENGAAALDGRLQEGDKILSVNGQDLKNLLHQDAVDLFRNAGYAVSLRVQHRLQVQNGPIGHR


Tests used:
GORASP1, Q9BQQ3 = assay: holdup assay; design: key: below the threshold = too weak to quantify, mostly under pKd 3.1 to 4
SYNJ2BP, P57105 = biological target: T1, SYNJ2BP, P57105; assay: holdup assay; design: key: below the threshold = too weak to quantify, mostly under pKd 3.1 to 4
[1] = plain residues with an end cap or a label only (N-terminal biotin on a linker: ado-ado)
[2] = plain residues with an end cap or a label only (N-terminal biotin on a linker: ahx)

Sequence of GORASP1, Q9BQQ3 (Q9BQQ3 1-208): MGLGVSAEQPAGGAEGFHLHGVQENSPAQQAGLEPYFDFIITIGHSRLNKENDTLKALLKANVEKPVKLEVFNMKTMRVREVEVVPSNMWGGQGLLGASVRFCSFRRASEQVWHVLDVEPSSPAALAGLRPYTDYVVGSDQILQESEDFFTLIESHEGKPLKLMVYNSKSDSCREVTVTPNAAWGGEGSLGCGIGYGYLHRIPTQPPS

Binder | pKd (GORASP1, Q9BQQ3; [1]) | pKd (SYNJ2BP, P57105; [1]) | pKd (GORASP1, Q9BQQ3; [2]) | pKd (SYNJ2BP, P57105; [2])
IDESKKEWLI [CNTNAP2, Q9UHC6] | 4.25 | below the threshold | – | –
SRSVVESDEL [MYPN, Q86TC9] | below the threshold | below the threshold | – | –
KRPEMTSSSV [MUC3A, MUC3B, Q02505;Q9H195] | below the threshold | 5.02 | – | –
DTKNYKQTSV [CRIPT, Q9P021] | below the threshold | 5.12 | – | –
PSVGSKKTVL [REELD1, A0A1B0GV85] | below the threshold | below the threshold | – | –
DRIQSCLSDA [SBF1, O95248] | below the threshold | below the threshold | – | –
SFISKKEWYV [NECTIN1, Q15223] | 4.44 | below the threshold | – | –
LKDDELKTKL [SLCO1A2, P46721] | below the threshold | below the threshold | – | –
AEASVACSLC [PTGIR, P43119] | below the threshold | below the threshold | – | –
NTANRRTTPV [CACNG2, Q9Y698] | below the threshold | 5.08 | – | –
TQKFRASTAL [FRMPD1, Q5SYB0] | – | – | 3.51 | 4.26
NTLNRKTTPV [CACNG8, Q8WXS5] | below the threshold | 4.85 | – | –
PTPDLPQTRV [KLHDC7A, Q5VTJ3] | below the threshold | below the threshold | – | –
ARGPPRESEV [FAM110D, Q8TAY7] | below the threshold | 5.35 | – | –
ARSAAASNYV [CLDN4, O14493] | 3.69 | 3.85 | – | –
QRPYRRGSEI [KCNJ18, B7U540] | below the threshold | 4.91 | – | –
NISYRRESAI [KCNJ4, P48050] | below the threshold | 4.84 | – | –
QDEKVKESYV [ABCA1, O95477] | – | – | 3.66 | 5.22
QPRTWLQSPV [RTKN, Q9BST9] | – | – | below the threshold | 5.2
DPAESMESLV [PTPRG, P23470] | below the threshold | 4.74 | – | –

Binder | pKd (GORASP1, Q9BQQ3; [1]) | pKd (SYNJ2BP, P57105; [1]) | pKd (GORASP1, Q9BQQ3; [2]) | pKd (SYNJ2BP, P57105; [2])
EIPAQSPTCV [FZD10, Q9ULW2] | 3.85 | 4.36 | – | –
DFLSTFHIRI [CIB2, O75838] | 4.59 | below the threshold | – | –
TISFTQTSQF [SLC1A1, P43005] | below the threshold | below the threshold | – | –
PSHPRLQTHV [KIRREL2, Q6UWL6] | below the threshold | 4.48 | – | –
NVYGIESVKI [GRIA2, P42262] | 3.58 | 3.52 | – | –
GIKKITSTAL [RPS6KA3, P51812] | 3.59 | 4.52 | – | –
NNNVVKVDSV [MTNR1A, P48039] | below the threshold | below the threshold | – | –
SVTSERETNI [SLC16A7, O60669] | below the threshold | 3.63 | – | –
GEDRSPPTAL [MKNK1, Q9BUB5] | below the threshold | below the threshold | – | –
LPAVCYDIDI [PTTG2, Q9NZH5] | 3.89 | below the threshold | – | –
QNTDDVQTSF [ACE2, Q9BYF1] | – | – | below the threshold | below the threshold
KKMLQRRTLL [OR8G1, Q15617] | 4.06 | below the threshold | – | –
QSGLYESEEL [MYOT, Q9UBF9] | below the threshold | 3.59 | – | –
PYSESDDDWC [CACNA1A, O00555] | below the threshold | 3.6 | – | –
AQRARSPSDV [GPR12, P47775] | below the threshold | 4.14 | – | –
EDGESWEYQI [TRPV6, Q9H1D0] | 4.63 | below the threshold | – | –
RQKEVRESKC [SCN8A, Q9UQD0] | below the threshold | 4.23 | – | –
MQHQRTHTRV [ZSCAN30, Q86W11] | 4.1 | 4.28 | – | –
NIAESLESLV [PTPRZ1, P23471] | below the threshold | 4.83 | – | –
VKRNSKETVV [MARCHF3, Q86UD3] | 4.09 | 4.76 | – | –

Binder | pKd (GORASP1, Q9BQQ3; [1]) | pKd (SYNJ2BP, P57105; [1]) | pKd (GORASP1, Q9BQQ3; [2]) | pKd (SYNJ2BP, P57105; [2])
ILRKSTTTTV [PRR16, Q569H4] | 4.19 | 4.2 | – | –
LESTTVGTSV [KARS1, Q15046] | below the threshold | 5.44 | – | –
STKRKLASAV [NCF1, P14598] | below the threshold | 4.85 | – | –
TNSRHGETTV [FZD2, Q14332] | 3.88 | 5.08 | – | –
ARESQKVSHV [FAM110B, Q8TC76] | 3.8 | 4.31 | – | –
SPDRDRESIV [SCN5A, Q14524] | 3.71 | 4.47 | – | –
PPGKHLVTEV [KCNA7, Q96RP8] | below the threshold | 4.86 | – | –
DDASLPVSDV [PLEKHA1, Q9HB21] | below the threshold | 3.59 | – | –
ELSATVTTDC [TRIP6, Q15654] | below the threshold | 4.68 | – | –
EDPRVEVTQF [SLC22A9, Q8IVM8] | below the threshold | below the threshold | – | –
LAHVKHKEQI [AQP3, Q92482] | below the threshold | below the threshold | – | –
KSRVAFFEEL [NF2, P35240;P35240-1] | 4.06 | below the threshold | – | –
APIAGFSSFV [SDK2, Q58EX2] | 3.75 | 4.72 | – | –
RFQQRMQTHV [KIRREL1, Q96J84] | below the threshold | 4.61 | – | –
REEPDHSTEV [CCRL2, O00421] | below the threshold | 5.14 | – | –
QSYPSKHDYV [CLDN18, P56856] | 3.74 | below the threshold | – | –
EPQYQPGENL [SRC, P12931] | below the threshold | below the threshold | – | –
DGVNEKVSCV [HTR2A, P28223] | below the threshold | 4.3 | – | –
